Test results published in EP4302836A1 (Danmarks Tekniske Universitet, dated 2024).

B1: TPL0039_05_G08 IgG (antibody, V domains shown)
VH: EVQLVESGGGVVQPGRSLRLSCAASGFTFSSYGMHWVRQAPGKGLEWVAVISYDGSNKYYADSVKGRFTISRDNSKNTLYLQMNSLRAEDTAVYYCARTNYDSGDAFDIWGQGTLVTVSS
VL: NFMLTQPHSVSESPGKTVTISCTRSSGSIASNYVQWYQQRPGSSPTTVIYEDNQRPSGVPDRFSGSIDSSSNSASLTISGLKTEDEADYYCQSYDSSTVVFGGGTKLTVLG
B2: TPL0039_05_B12 IgG (antibody, V domains shown)
VH: EVQLVESGGGVVQPGRSLRLSCAASGFTFSSYGMHWVRQAPGKGLEWVAVISYDGSNKYYADSVKGRFTISRDNSKNTLYLQMNSLRAEDTAVYYCAGWTEGDAFDIWGQGTLVTVSS
VL: NFMLTQPHSVSESPGKTVTISCTRSSGSIASNYVQWYQQRPGSAPSTVIYEDNRRPSGVPDRFSGSIDSASNSASLTISGLKTEDEADYYCQSYDSSSVVFGGGTKITVLG
B3: TPL0039_05_B04 IgG (antibody, V domains shown)
VH: EVQLLESGGGVVQPGRSLRLSCAASGFTFSSYGMHWVRQAPGKGLEWVAVISYDGSNKYYADSVKGRFTISRDNSKNTLYLQMNSLRAEDTAVYYCARVGENEAFDIWGQGTMVTVSS
VL: NFMLTQPHSVSESPGKTVTISCTRSSGSIARNYVQWYQQRPGSAPTTVIYEDNQRPSGVPDRFSGSIDSSSNSASLTISGLKTEDEADYYCQSYDSSTVVFGGGTKLTVLG
B4: TPL0039_05_A03 IgG (antibody, V domains shown)
VH: QVQLVESGGGLAKPGRSLRLSCAVSGFTFSSYGMHWVRQAPGKGLEWVAVISYDGSNKYYADSVKGRFTISRDNSKNTLYLQMNSLRAEDTAVYYCASTLQQLDAFDIWGQGTMVTVSS
VL: NFMLTQPHSVSESPGKTITISCTRSSGSIASNYVQWYQQRPGSVPTPVIYEDDRRPSGVPDRFSGSIDSSSNSASLTISGLKTEDEADYYCQSYDSSSVVFGGGTKITVLG
B5: TPL0039_05_F04 IgG (antibody, V domains shown)
VH: QVQLVESGGGVVQPGRSPRLSCAASGFTFSSYGMHWVRQAPGKGLEWVAVISYDGSNKYYADSVKGRFTISRDNSKNTLYLQMNSLRAEDTAVYYCAKDLEYSSSSWGQGTLVTVSS
VL: NFMLTQPHSVSESPGKTVTISCTRSSGSIASNYVQWFQQRPGSSPTTVIYEDDQRPSGVPDRFSGSIDSSSNSASLTISGLKTEDEATYFCQSYDSSTVVFGGGTKVTVLG
B6: TPL0039_05_F04 scFv (scFv, V domains shown)
VH: QVQLVESGGGVVQPGRSPRLSCAASGFTFSSYGMHWVRQAPGKGLEWVAVISYDGSNKYYADSVKGRFTISRDNSKNTLYLQMNSLRAEDTAVYYCAKDLEYSSSSWGQGTLVTVSS
VL: NFMLTQPHSVSESPGKTVTISCTRSSGSIASNYVQWFQQRPGSSPTTVIYEDDQRPSGVPDRFSGSIDSSSNSASLTISGLKTEDEATYFCQSYDSSTVVFGGGTKVTVLG

Key:
[1] = biological target: T1, Myotoxin II from Bothrops asper (Basic phospholipase A2 homolog 2, Uniprot P24605) (Bothrops asper, UniProt P24605 17-137); experiment: cell-based or functional assay
[2] = biological target: T1, Myotoxin II from Bothrops asper (Basic …); experiment: monoclonal IgG ELISA, dilution series (Fig. 2A legend)
[3] = biological target: T1, Myotoxin II from Bothrops asper (Basic …); experiment: expression-normalized capture (ENC) assay, antigen at 10 nM (data not shown)

T1 sequence (P24605 17-137, one chain of several): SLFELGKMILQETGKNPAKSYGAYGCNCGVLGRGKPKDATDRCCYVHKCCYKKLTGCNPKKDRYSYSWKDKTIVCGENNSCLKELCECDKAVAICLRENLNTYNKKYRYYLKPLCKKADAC

| Binder | fibroblast viability assay (CellTiter-Glo), toxin:IgG ratio for full neutralization [1] | other results |
| --- | --- | --- |
| B1 | 1 mol IgG per mol toxin (printed as toxin:IgG 1:1) | – |
| B2 | 0.5 mol IgG per mol toxin (printed as toxin:IgG 1:0.5) | – |
| B3 | 0.5 mol IgG per mol toxin (printed as toxin:IgG 1:0.5) | – |
| B4 | 0.5 mol IgG per mol toxin (printed as toxin:IgG 1:0.5) | – |
| B5 | – | binding result [2]: binds |
| B6 | – | binding result [3]: binds |
